Laboratory results from patent publication US10849966B2, “Methods for treating netosis and neutrophil activation” (TRUSTEES OF BOSTON UNIVERSITY, priority 2017, dated 2020).
Read-outs that look alike come from different tables or passages of the source.

T1: DEspR on intact human cells (Homo sapiens, UniProt B0L3A2)
T1 construct: endogenous in cells; host or cells: intact human cells / 'DEspR+ human cells'
T1 sequence (B0L3A2 1-85): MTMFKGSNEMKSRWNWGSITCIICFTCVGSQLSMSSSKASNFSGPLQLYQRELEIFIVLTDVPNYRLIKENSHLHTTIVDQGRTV

B1: 6g8-mumab: murine precursor anti-DEspR antibody, pan-species reactive anti-Human/Rat/Monkey DEspR mAb (antibody, V domains shown)
VH: GSEVQLQESGGGLVQPGGSLKLSCAASGFDFSRYWMSWVRQAPGKGLEWIGEINPDSSTINYTPSLKDKFIISRDTAKKTLYLQMSKVRSEDTALYYCARHGRGMDYWSQGTSVTVSSAKTTPPSVYGGGGS
VL: GGGGSDIVLTQTNQIMSASVGDRVSVTCKASQNVDSNVAWYQQKPGHSPKALIYSASYRYSRVPDRITGSGSGTDFTLTITNVQSKDLADYFCQQYHSYPLLAFGAGTKLELKRADAAPTVSLE

What was measured:
[1] = test system: pancreatic peritoneal metastatic tumors; assay: combination anti-DEspR mAb and gemcitabine in rats with pancreatic peritoneal metastatic tumors; type: in vivo; conditions: per rat
Description: FIG. 36 depicts representative images of tumor treated rats with combination anti-DEspR mAb and gemcitabine vs gemcitabine alone, and mock-treated saline controls. GEM tx: gemcitabine treatment (100 mg/kg/dose iv×2). Hu-6g8 or ABTM-468: humanized anti-DEspR mAb treatment 1 mg/kg/dose iv×1/week×2. Combo-tx: combination therapy. Saline mock Tx: mock.
The observations of anti-DEspR/gemcitabine synergy supports the potential of anti-DEspR mAb therapy to be a compelling partner for combination with checkpoint inhibitors. […] The paradigm of unique combinatorial synergy was further tested in vivo. […] Moreover, there was no ascites in ComboTx-rats. Gut distention from gut-dysfunction is also evident in saline mock-treated (Tx) control. (FIG. 36).
Importantly, metastasis to the liver and retroperitoneal space, and ascites were all prevented/inhibited by ComboTx.

activated neutrophils = assay: dose-response survival assay of activated neutrophils (Trypan blue dye exclusion); type: cell-based; conditions: for IC50: live cells counted by Trypan blue dye exclusion, read-out: IC50, inhibition of activated neutrophil survival
Excerpt: FIG. 6 depicts a graph comparison of functional activity of anti-DEspR fully humanized 6g8 mAb, 6g8-humab, and prototype murine anti-DEspR 6g8 mAb, 6g8-mumab.
(§1) FIGS. 17A-17C depict anti-DEspR-mab (hu6g8 mab). FIG. 17A depicts a diagram of DEspR, murine precursor mabs and humanized IgG and IgG4 mabs. Hu6g8 is notated as 6g8g7-hu-IgG4 raised against epitope 2, spanning the putative binding domain.
Described herein are the advantages of anti-DEspR mAb targeted AECs. DEspR, the dual endothelin1/signal peptide receptor,^9 is a validated target on human activated neutrophils and NETs. Hu6g8 binds human activated neutrophils (FIG. 18A) and NETs (FIG. 18B), as confirmed by Western Blot analysis of DEspR protein in human kidney (K), and activated neutrophil samples, act-Ns (FIG. 18C). Humanized anti-DEspR-mab (hu6g8 mab) is an ideal targeting moiety. Hu6g8 is the multi-species Human/NHPrimate/Rat reactive humanized-deimmunized anti-DEspR-mab with a hinge-stabilized IgG4S228P/kappa Fc region (FIG. 17A) to avoid (ADCC-antibody dependent cell-mediated cytotoxicity, CDC-complement dependent cytotoxicity), and to eliminate loss of targeting upon Fab arm exchange typical of native IgG4 isotype. […] Through recombinant DNA technology, the antibody design incorporates: a) avoidance of T-cell epitopes for low immunogenicity; b) optimization of heavy and light chain interactions for stability of variable domains; and, c) exclusion of destabilizing post-translational modification sites [e.g., deamidation, oxidation]. The targeting of DEspR^+ NETs, but sparing of DEspR(−) quiescent neutrophils via the anti-DEspR mAb is also novel. […] The use of human neutrophil-elastase cleavable linker is advantageous as this connector-peptide can be added by recombinant technology and HNE is enriched on NETs and actually a reason for the injurious properties of NETs. HNE is desirable for local therapeutic delivery [Owen C A, Campbell E J. J Leukocyte Biol 1999, 65 (2) 137-150], has specificity for small uncharged amino acids particularly alanine (A) and valine (V) [Meers P. Adv Drug Delivery Rev. 2001. 53 (3) 265-272]. […] The advantages of all three in an AEC is novel and robust as the targeted delivery and release of DNAse 1 on NETs can attain in vivo efficacy of what has been shown in vitro, the induction of macrophage uptake-and-clearance of NETs upon DNAse 1 digest of NETs DNA. In summary, targeting the intravascular NETs sites. The humanized anti-DEspR-mab with a hinge-stabilized IgG4/kappa Fc region to avoid Fab arm exchange in vivo and ensuing loss of targeting was selected. Additionally, this avoids immune effector functions of IgG1 mAbs (ADCC, CDC), which would worsen endothelial injury. […]

[2] = target: T1, DEspR on intact human cells; assay: hu6g8 binding to DEspR on intact human cells; conditions: done in triplicate
Excerpt: as §1
Described herein is the development, characterization, and validation of a fully humanized anti-DEspR mAb with a S228P hinge-stabilized IgG4/kappa FC region, designated herein as hu-6g8 or […]. The hu-6g8 was designed for high binding affinity to DEspR+ human cells and inhibition of activated neutrophil survival. hu-6g8 is reactive in all species, having identical epitopes in human, primates and rodents, which facilitates preclinical and clinical studies using the therapeutic lead. […] (FIG. 6). Through recombinant DNA technology, hu-6g8 was designed with optimal biophysical properties via: a) avoidance of T-cell epitopes for low immunogenicity—‘deimmunized’, b) optimization of heavy and light chain interactions for stability of variable domains, and c) exclusion of destabilizing post-translational modification sites [deamidation, oxidation, acid-lability, inappropriate N-glycosylation, isomerization and pyroglutamate formation].
Described herein are the advantages of anti-DEspR mAb targeted AECs. DEspR, the dual endothelin1/signal peptide receptor,^9 is a validated target on human activated neutrophils and NETs. […]

[3] = test system: LPS-activated neutrophils; assay: ex vivo survival of LPS-activated neutrophils; type: cell-based, rat; conditions: vs control non-treated activated neutrophils, P<0.0001; listed as 6g8
Excerpt: FIGS. 2A-2B depict DEspR expression on rat activated neutrophils and anti-DEspR inhibition of activated neutrophil survival. FIG. 2A) FACS analysis of CD11b activated neutrophils that are DEspR+(bold oval), and DEspR[−] (bold circle). Quiescent neutrophils are DEspR[−] and CD11B[−] in Quadrant Q4. FIG. 2B depicts inhibition of the extended survival of activated neutrophils by two different anti-DEspR mAbs targeting two different epitopes on DEspR.
DEspR is expressed on activated human neutrophils (FIG. 1A) and in neutrophils undergoing NETosis (FIG. 1C-D), in contrast to isotype control (FIG. 1B). Anti-DEspR mAb detects DEspR expression on rat LPS-activated neutrophils (FIG. 2A). […] Majority of CD11b activated neutrophils are DEspR+(Red bold circle) in contrast to CD11b+ but DEspR(−) (yellow circle) activated neutrophils (FIG. 2A).
Briefly, this anti-DEspR approach is supported by experimental data as outlined below: • 1. Validation of DEspR as target. DEspR is expressed on activated human neutrophils (FIG. 1A,1C,1D). Anti-DEspR immunostaining specificity is shown by no signal in isotype control neutrophils (FIG. 1B). Most human neutrophils undergoing NETosis are DEspR+ (FIG. 1C-1D). NETs (neutrophil extracellular traps) are associated with organ microthrombi in MOF and directly induce endothelial and epithelial cell death,^56 all of which are pathogenic events in ARDS. • 2. […]

[4] = test system: LPS-induced hemorrhagic encephalopathy in stroke prone rats; assay: LPS-induced hemorrhagic encephalopathy / multi-organ failure rat model; type: in vivo
Excerpt: FIG. 3A) control rat brain after PBS-buffer perfusion to eliminate intravascular blood.
FIG. 4 depicts a survival curve analysis of anti-DEspR treated rats compared with non-treated rats in a rat model of LPS-induced multi-organ failure manifesting predominantly as hemorrhagic encephalopathy (phenotype corroborated in FIG. 3A-3F).
Neutrophil-mediated tissue injury has been implicated in blood brain barrier disruption or injury.
The murine precursor anti-DEspR antibody, 6g8-mumab, was studied in a rat model of LPS-induced hemorrhagic encephalopathy as a paradigm of multi-organ failure (MOF) in ARDS and sepsis (FIG. 3A-3F).
It was also determined whether anti-DEspR can increase survival of rats in a LPS-induced hemorrhagic encephalopathy MOF rat model.

Row | Molecule | Ascites volume [1] [mls] | Tumor weight (g) Greater Omentum [1] [g] | Ascites ([1]; GEM 100 mg/kg/dose iv×2, hu-6g8 1 mg/kg/dose iv×1/week×2) | IC50 (activated neutrophils; listed as mu-6g8) [nM] | IC50 (activated neutrophils) [nM] | IC50, inhibition of activated neutrophil survival (activated neutrophils; maximum dose used in the dose-response survival assay) [µg/mL] | EC50 [2] [nM] | survival of activated neutrophils ex vivo [3] | progression to hemorrhagic encephalopathy ([4]; single dose 1 mg/kg/dose iv after LPS) | murine IgG levels in brain (ELISA of brain membrane proteins) ([4]; treated rat brains, target engagement) | neutrophil myeloperoxidase (MPO) levels in the brain (ELISA) ([4]; vs non-treated LPS brains) | rat albumin levels in the brain (ELISA), brain edema ([4]; vs non-treated LPS brains)
1 | Nc1ccn([C@@H]2O[C@H](CO)[C@@H](O)C2(F)F)c(=O)n1 [GEM, gemcitabine] | 1.5 | 1.6351 | Bloody |  |  |  |  |  |  |  |  | 
2 | B1 |  |  |  | > 198 | > 200 | > 30 | 178 | decreased their survival | attenuated the progression to life-threatening hemorrhagic encephalopathy | greater brain levels than anti-DEspR 10a3 | decreased myeloperoxidase levels | decreased albumin levels
